Square brackets hold non-standard residues; d marks the D form. Peptide text beside a SMILES is read from it. * marks the point of attachment. Doxorubicin(3'-N) = COc1cccc2c1C(=O)c1c(O)c3c(c(O)c1C2=O)C[C@@](O)(C(=O)CO)C[C@@H]3O[C@H]1C[C@H](N*)[C@H](O)[C@H](C)O1; Nle = CCCC[C@H](N)C(=O)O
Settings: mouse, in vivo

SMILES: CCCC[C@H](NC(=O)[C@H](CO)NC(=O)[C@H](CCCNC(=N)N)NC(=O)CNC(=O)[C@H](CO)NC(=O)CNC(C)=O)C(=O)N[C@H]1C[C@H](O[C@H]2C[C@](O)(C(=O)CO)Cc3c(O)c4c(c(O)c32)C(=O)c2c(OC)cccc2C4=O)O[C@@H](C)[C@H]1O [Ac-Gly-Ser-Gly-Arg-Ser-nLeu-Dox] (Ac-GSGRS[Nle]-{Doxorubicin(3'-N)})
- levels of dox and nor-leu dox in the plasma compared with the tumor: lower levels
- parent conjugate in the tumor: does not get into the tumor
- toxins (norleu dox and dox) concentrations in the tumor: μM concentrations

Reference: patent US20040001801A1 (priority 2002, published 2004)
